Test results reported in patent US20050239072.

Target: human recombinant prion protein hrPrP (PrP23-231) (Homo sapiens) (UniProt P04156)
Assay: FP filter
[1] = no tRNA, 250 mM NaCl, 2 mM MgCl2, 37 C

Substance | Kd [1] | Kd (with tRNA competitor)
MDV (244 nt) | 7.6 nM | 170 nM
MNV (86 nt) | 38 nM | 1000 nM
